Columns and labels:
[1] = target: T1, recombinant human BCMA-his fusion protein (ACRO Biosystem, Cat. No. BCA-H522y) (human, UniProt Q02223 1-54); experiment: competitive ELISA, coated huBCMA-his, competitor APRIL-biotin
T1 construct: extracellular domain; Bought protein; also called huBCMA-his; hu BCMA-his; not shown: His tag
T1 sequence (looked up): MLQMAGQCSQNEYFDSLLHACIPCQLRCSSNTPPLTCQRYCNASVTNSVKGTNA
Experimental: The 96-well microplate was treated with 100 μL of 0.5 μg/mL huBCMA-his in PBS and incubated overnight at 4° C. The plate was then washed thrice with PBS washing buffer containing 0.1% of Tween-20 and blocked with 300 μL of PBS containing 1% of BSA for 2 h. 100 μL of each BCMA antibody was added to the plate. […] The plate was incubated at 37° C. for 1 h, and unbound secondary antibody was washed with PBS washing buffer containing 0.1% of Tween-20. The TMB chromogenic solution was added at 100 μL/well. After a 5-min reaction at room temperature, 2 M H₂SO₄ was added at 100 μL/well to terminate the reaction. The microplate was placed on a microplate reader (Molecular Devices, SPECTRA Max plus 384) and the absorbance OD450 value was read at 450 nm wavelength.

[2] = target: T1, recombinant human BCMA-his fusion …; experiment: as above; remark: listed apart in the source
[3] = target: T1, recombinant human BCMA-his fusion …; experiment: ELISA, coated antigen
Experimental: (§1) Procedures: huBCMA-his and cynoBCMA-his antigens were prepared into 0.5 μg/mL coating solutions with PBS (pH 7.4). The coating solutions were added to a microplate at 100 μL/well and incubated at 4° C. overnight. The residual coating solution was discarded before 3% BSA was added at 300 μL/well, and the plate was blocked for 3 h at room temperature. The microplate was washed once with PB ST at 300 The stock humanized monoclonal antibody solutions were serially 3-fold diluted to the 11th concentration. The dilutions were added to the microplate at 100 μL/well. After a 1-h incubation at room temperature, the microplate was washed thrice with PBST at 300 The HRP-conjugated 6*His, His-Tag antibody was 25,000-fold diluted with 1% BSA-PBST and added at 100 After another 1-h incubation at room temperature, the microplate was washed thrice with PB ST at 300 μL/well and dried. The TMB chromogenic solution was added at 100 μL. After a 5-min reaction at room temperature, 2 M H2504 was added at 100 μL/well to terminate the reaction. The microplate was placed on a microplate reader (Molecular Devices, SPECTRA Max plus 384) and the absorbance OD450 value was read at 450 nm wavelength.

[4] = target: T2, recombinant cynomolgus monkey cynoBCMA-his (ACRO Biosystem, Cat. No. BCA-052H7) (cynomolgus monkey, UniProt A0A2K5UD97 1-53); experiment: ELISA, coated antigen
T2 construct: extracellular domain; Bought protein; also called cynomolgus/rhesus macaque BCMA/TNFRSF17 protein; not shown: His tag
Experimental: as §1

[5] = target: T3, human BCMA on cells (NCI-H929, U266B1, HEK293 huBCMA) (human, UniProt Q02223 1-184); experiment: flow cytometry on NCI-H929 cells
T3 construct: whole, on cells; also called cell surface BCMA antigen
T3 sequence (looked up): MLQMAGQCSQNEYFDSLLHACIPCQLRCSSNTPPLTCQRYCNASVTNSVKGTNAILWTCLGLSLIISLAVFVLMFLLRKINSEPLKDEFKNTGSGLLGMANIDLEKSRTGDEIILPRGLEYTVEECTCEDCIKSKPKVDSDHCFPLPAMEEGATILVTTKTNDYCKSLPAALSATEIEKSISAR
Experimental: (§2) Procedures: Preparation of cell suspensions: The cells were resuspended in PBS, and the cell density was adjusted to 2×10⁵ cells/well. Mouse antibodies were added to a 96-well plate at […] and serially 3-fold diluted from 3000 nM. The plate was incubated for 1 h at 4° C. 150 μL of precooled PBS containing 1% of FBS was added into the 96-well plate after the co-incubation with the primary antibody was finished. The mixtures were centrifuged at 300×g for 5 min and the supernatants were discarded. The above procedures were repeated once. The fluorescent secondary antibody PE […] (Biolegend, 409304) was added at 80 μL/well. The plate was incubated at 4° C. for 30 min. 150 μL of precooled PBS containing 1% of FBS was added into the 96-well plate after the co-incubation with the secondary antibody was finished. The mixtures were uniformly mixed with a pipette. The 96-well plate was centrifuged at 300×g for 5 min in a plate centrifuge and the supernatants were removed. The above procedures were repeated once. The cells were resuspended in 100 μL of PBS containing 1% of FBS and detected on a flow cytometry (BD Accuri™ C6).

[6] = target: T4, cynomolgus monkey BCMA on HEK293 cynoBCMA cells (cynomolgus monkey, UniProt A0A2K5UD97 1-183); experiment: flow cytometry on HEK293 cynoBCMA cells
T4 construct: whole, on cells
Experimental: as §2

[7] = target: T1, recombinant human BCMA-his fusion …; experiment: SPR (Biacore T200), anti-His capture on CM5, 1:1 fit
Experimental: (§3) In this example, the antigen-antibody binding kinetics and affinity were determined by the BIACORE method.
(§4) Procedures: The anti-histidine antibody (GE, His capture Kit, Cat. No. 28995056) was conjugated to the Sereis S Sensor Chip CMS to capture the test articles, thus acquiring the binding kinetic and affinity data of the antigen, as an analyte, to the test articles. The initial concentration for detecting the binding of the antigen and the test articles was 10 nM. […] The Start up flushing process (1×HBS-EP+buffer) was performed at least thrice before loading to equilibrate the system. The association and dissociation tendencies between the antigen and the test articles were detected. When the dissociation was completed, a regeneration reagent was loaded for regeneration before the detection of the next concentration was performed. After the detection was finished, the data were fitted by using a 1:1 Binding fitting mode in data analysis software (Biacore T200 Evaluation Software).

[8] = target: T2, recombinant cynomolgus monkey …; experiment: as above
Experimental: as §3, §4

[9] = target: T1, recombinant human BCMA-his fusion …; experiment: competitive ELISA, coated huBCMA-his, competitor 83A10-biotin
[10] = target: T2, recombinant cynomolgus monkey …; experiment: competitive ELISA, coated cynoBCMA-his, competitor 83A10-biotin
[11] = target: T1, recombinant human BCMA-his fusion …; experiment: competitive ELISA, coated huBCMA-his, competitor 83A10-biotin, antibody at 7 µg/mL
[12] = target: T5, recombinant human BCMA-huFc fusion protein (human); experiment: indirect ELISA, coated antigen
T5 construct: also called huBCMA-huFc
Experimental: Procedures: Human, mouse and monkey BCMA antigens were prepared into 0.5 μg/mL coating solutions with PBS buffer. The coating solutions were added to a microplate at 100 μL/well and incubated at 4° C. overnight. The residual coating solution was discarded before 3% BSA was added at 300 μL/well, and the plate was blocked for 3 h at room temperature. The microplate was washed once with PBST (PBS containing 0.1% of TWEEN 20) at 300 μL/well. The three mouse BCMA antibodies were serially 3-fold diluted from 10 μg/mL to the 7th concentration. The dilutions were added to the microplate at 100 μL/well. After a 1-h incubation at room temperature, the microplate was washed thrice with PBST at 300 μL/well. The HRP goat anti-mouse IgG antibody was 25,000-fold diluted with 1% BSA-PBST and added at 100 μL/well. After another 1-h incubation at room temperature, the microplate was washed thrice with PBST at 300 μL/well and dried. The TMB chromogenic solution was added at 100 μL/well. After a 5-min reaction at room temperature, 2 M H₂SO₄ was added at 100 μL/well to terminate the reaction. The microplate was placed on a microplate reader (Molecular Devices, SPECTRA Max plus 384) and the absorbance OD450 value was read at 450 nm wavelength.

[13] = target: T3, human BCMA on cells (NCI-H929, U266B1, …); experiment: flow cytometry on U266B1 cells
Experimental: (§5) The affinities of the 3 mouse antibodies for cell surface BCMA antigen were assessed using FACS. Materials: cell lines NCI-H929, U266B1, HEK293 cynoBCMA and HEK293; PBS buffer; FBS (fetal bovine serum; Gibco, 10099141); PE goat anti-mouse IgG Fc (Biolegend, 405307). Procedures: The cells were resuspended in PBS to prepare cell suspensions containing 200,000 cells. Mouse BCMA antibodies were added to a 96-well plate at 50 μL/well and serially 3-fold diluted from 3000 nM. The plate was incubated for 1 h at 4° C. 150 μL of precooled PBS containing 1% of FBS was added into the 96-well plate after the co-incubation with the primary antibody was finished. The mixtures were centrifuged at 300×g for 5 min and the supernatants were discarded. The above procedures were repeated once. The fluorescent secondary antibody PE goat anti-mouse IgG Fc was added at 80 μL/well. The plate was incubated at 4° C. for 30 min. 150 μL of precooled PBS containing 1% of FBS was added into the 96-well plate after the co-incubation with the secondary antibody was finished. The mixtures were uniformly mixed with a pipette. The 96-well plate was centrifuged at 300×g for 5 min in a plate centrifuge and the supernatants were discarded. The above procedures were repeated once. The cells were resuspended in 100 μL of PBS containing 1% of FBS and detected on a flow cytometry (BD Accuri™ C6).

[14] = target: T3, human BCMA on cells (NCI-H929, U266B1, …); experiment: flow cytometry on NCI-H929 cells; remark: listed apart in the source
Experimental: as §5

T2 sequence (A0A2K5UD97 entry or part of it): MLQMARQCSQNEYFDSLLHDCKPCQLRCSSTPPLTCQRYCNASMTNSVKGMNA
T4 sequence (A0A2K5UD97 entry or part of it): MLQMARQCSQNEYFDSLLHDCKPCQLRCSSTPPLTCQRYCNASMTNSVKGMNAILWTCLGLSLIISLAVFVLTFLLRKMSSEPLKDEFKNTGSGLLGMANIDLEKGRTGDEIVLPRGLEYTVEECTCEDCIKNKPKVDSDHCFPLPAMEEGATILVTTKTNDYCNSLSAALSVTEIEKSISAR

B1: soluble human APRIL (ACRO, Cat. No. APL-H5244) (ligand, UniProt O75888 115-250, looked up)
chain: HSVLHLVPINATSKDDSDVTEVMWQPALRRGRGLQAQGYGVRIQDAGVYLLYSQVLFQDVTFTMGQVVSREGQGRQETLFRCIRSMPSHPDRAYNSCYSAGVFHLHQGDILSVIIPRARAKLNLSPHGTFLGFVKL
notes: also called APRIL ligand; APRIL-biotin
IC50 [1]: 0.0247 µg/mL | IC50 [2]: 3.7 µg/mL

B2: humanized antibody hu-mAb3 (VH3+VL3) (antibody, V domains shown)
VH: QVQLVQSGAEVKKPGASVKVSCKASGYTITDYNMDWVRQAPGQGLEWIGNINPHNGGSIYNQKFQGRATLTVDKSTSTAYMELSSLRSEDTAVYYCARGDATLVLDYWGQGTTVTVSS
VL: DIQLTQSPSSLSASVGDRATITCRASKSVSTSGLSYMHWYQQKPGKAPKVLIYLASNLESGVPARFSGSGSGTDFTLTISSVQPEDFATYYCQHSRELPPTFGQGTKLELK
notes: human IgG1/kappa named only as preferred
EC50 [3]: 22.6 pM | EC50 [4]: 30.3 pM | EC50 [5]: 8070 pM | EC50 [6]: 3760 pM | Kd [7]: 399 pM | koff [7]: 0.00235 s⁻¹ | kon [7]: 5.9e+06 M⁻¹ s⁻¹ | Kd [8]: 256 pM | koff [8]: 0.000773 s⁻¹ | kon [8]: 3.02e+06 M⁻¹ s⁻¹ | IC50 [2]: 0.918 µg/mL | IC50 [9]: 1.37 µg/mL | IC50 [10]: 1.32 µg/mL

B3: humanized antibody hu-mAb2 (VH2+VL2) (antibody, V domains shown)
VH: QVQLVQSGAEVKKPGSSVKVSCKVSGYTFTDHTIHWMKQAPGQGLEWIGYIYPRNGNTKYNEKFKGKATLTADKSTSTAYMELSSLRSEDTAVYFCARYDYDGYFDVWGQGTLVTVSS
VL: DVVMTQTPLSLSVTPGQPASISCRSSQSHVHSDGHTYLHWYLQKPGQSPELLIYKVSNRFSGVPDRFSGSGSGTDFTLKISRVEAEDVGVYFCSQNTHFPWTFGGGTKVEIK
notes: as for B2
EC50 [3]: 2.71 pM | EC50 [5]: 830 pM | Kd [7]: 1150 pM | koff [7]: 0.0258 s⁻¹ | kon [7]: 2.24e+07 M⁻¹ s⁻¹ | IC50 [2]: 2.76 µg/mL | IC50 [9]: 8.35 µg/mL | competition [11]: 30%

B4: mouse monoclonal antibody 202E11H10E3 (antibody, V domains shown)
VH: QVQLQQSDAELVKPGTSVKISCKVSGYTFTDHTIHWMKQRPEQGLEWIGYIYPRNGNTKYNEKFKGKATLTADKSSSTAYMHLNSLTSEDSAVYFCARYDYDGYFDVWGTGTTVTVSS
VL: DVVMTQTPLSLPVSLGDQASISCRSSQSHVHSDGHTYLHWYLQKPGQSPELLIYKVSNRFSGVPDRFSGSGSGTDFTLKISRVEAEDLGVYFCSQNTHFPWTFGGGTKLEIK
notes: detected with anti-mouse IgG; also called Clone 202E11H10E3; BCMA-HC2/BCMA-LC2
EC50 [12]: 76.4 pM | EC50 [13]: 1000 pM | EC50 [14]: 1100 pM

B5: mouse monoclonal antibody 18F6G3H9 (antibody, V domains shown)
VH: EVQLQQSGPELVKPGTSVEMSCKASGYTFTDYNIHWVRQRHGESLEWLGYINPNNGVTNFNQKFKGKATLTVNKSSSTAYMELRSLTSDDSAVYYCSSGLFDGYPFPYWGQGTLVTVSA
VL: DIVLTQSPASLVVSLGQRATISCRASKSVSTSGYNYIHWYQQKPGQPPKLLIFLASNLKSGVPARFSGGGSGTDFTLNIHPVEEDDAATYFCQHNRELPYTFGGGTKVEIK
notes: detected with anti-mouse IgG; also called Clone 18F6G3H9; BCMA-HC1/BCMA-LC1
EC50 [12]: 70.5 pM | EC50 [13]: 1600 pM | EC50 [14]: 3100 pM

Source: patent US20240117061A1 (WUHAN YZY BIOPHARMA, published 2024)
